Measured values taken from PMC9098846, “Molecular insights into biogenesis of glycosylphosphatidylinositol anchor proteins” (Nature Communications, 2022).

Target: T1, PIGT, subunit of the human GPI transamidase (GPI-T) (human) (UniProt Q969N2)
T1 sequence (chain, disulfide bond from C182 to PIGK C92): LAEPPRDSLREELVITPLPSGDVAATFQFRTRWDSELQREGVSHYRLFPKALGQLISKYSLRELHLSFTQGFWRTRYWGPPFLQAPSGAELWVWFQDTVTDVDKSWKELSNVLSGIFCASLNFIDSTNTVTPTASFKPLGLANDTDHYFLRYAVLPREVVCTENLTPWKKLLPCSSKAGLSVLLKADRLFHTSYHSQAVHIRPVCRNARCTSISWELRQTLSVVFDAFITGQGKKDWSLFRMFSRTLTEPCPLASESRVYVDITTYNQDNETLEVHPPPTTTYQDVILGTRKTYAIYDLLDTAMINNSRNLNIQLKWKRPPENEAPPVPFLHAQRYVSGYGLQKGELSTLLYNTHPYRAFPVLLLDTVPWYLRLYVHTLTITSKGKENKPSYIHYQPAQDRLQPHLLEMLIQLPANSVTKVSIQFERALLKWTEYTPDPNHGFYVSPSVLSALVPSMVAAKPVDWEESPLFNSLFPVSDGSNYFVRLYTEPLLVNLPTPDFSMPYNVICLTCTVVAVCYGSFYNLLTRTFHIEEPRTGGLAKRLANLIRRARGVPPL

B1: PIGK C92A (enzyme)
chain: SHIEDQAEQFFRSGHTNNWAVLVCTSRFWFNYRHVANTLSVYRSVKRLGIPDSHIVLMLADDMAANPRNPKPATVFSHKNMELNVYGDDVEVDYRSYEVTVENFLRVLTGRIPPSTPRSKRLLSDDRSNILIYMTGHGGNGFLKFQDSEEITNIELADAFEQMWQKRRYNELLFIIDTCQGASMYERFYSPNIMALASSQVGEDSLSHQPDPAIGVHLMDRYTFYVLEFLEEINPASQTNMNDLFQVCPKSLCVSTPGHRTDLFQRDPKNVLITDFFGSVRKVEITTETIKLQQDSEIMESSYKEDQMDEKLMEPLKYAEQLPVAQIIHQKPKLKDWHPPGGFILGLWALIIMVFFKTYGIKHMKFIF
For B1, the apparent GPI-T activity: surface staining of the reporter GPI-AP CD59 on PIGK knockout cells by flow cytometry, compared to the wild-type PIGK (% of wild-type) was 61.
